Source: publication PMC8794802

Columns and labels:
[1] = biological target: T1, Pus7 delta ID-I (Saccharomyces cerevisiae, UniProt Q08647 1-74+216-676, internal_change); assay: EMSA
T1 sequence: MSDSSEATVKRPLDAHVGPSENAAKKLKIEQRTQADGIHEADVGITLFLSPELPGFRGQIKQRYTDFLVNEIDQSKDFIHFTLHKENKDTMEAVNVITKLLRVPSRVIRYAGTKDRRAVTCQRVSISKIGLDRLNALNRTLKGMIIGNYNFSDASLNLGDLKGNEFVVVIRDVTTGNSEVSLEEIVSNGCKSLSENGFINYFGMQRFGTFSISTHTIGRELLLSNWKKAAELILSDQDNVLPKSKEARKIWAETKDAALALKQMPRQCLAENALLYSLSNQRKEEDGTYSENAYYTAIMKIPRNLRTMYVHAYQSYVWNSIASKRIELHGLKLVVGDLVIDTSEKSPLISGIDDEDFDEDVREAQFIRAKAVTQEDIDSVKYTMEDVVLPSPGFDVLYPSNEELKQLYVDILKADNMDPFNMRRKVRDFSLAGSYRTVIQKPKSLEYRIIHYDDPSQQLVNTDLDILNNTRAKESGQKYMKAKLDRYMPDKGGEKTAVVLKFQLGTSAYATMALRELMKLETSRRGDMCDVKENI

[2] = biological target: T2, Pus7 WT (Saccharomyces cerevisiae, UniProt Q08647 1-676); assay: EMSA
T2 sequence: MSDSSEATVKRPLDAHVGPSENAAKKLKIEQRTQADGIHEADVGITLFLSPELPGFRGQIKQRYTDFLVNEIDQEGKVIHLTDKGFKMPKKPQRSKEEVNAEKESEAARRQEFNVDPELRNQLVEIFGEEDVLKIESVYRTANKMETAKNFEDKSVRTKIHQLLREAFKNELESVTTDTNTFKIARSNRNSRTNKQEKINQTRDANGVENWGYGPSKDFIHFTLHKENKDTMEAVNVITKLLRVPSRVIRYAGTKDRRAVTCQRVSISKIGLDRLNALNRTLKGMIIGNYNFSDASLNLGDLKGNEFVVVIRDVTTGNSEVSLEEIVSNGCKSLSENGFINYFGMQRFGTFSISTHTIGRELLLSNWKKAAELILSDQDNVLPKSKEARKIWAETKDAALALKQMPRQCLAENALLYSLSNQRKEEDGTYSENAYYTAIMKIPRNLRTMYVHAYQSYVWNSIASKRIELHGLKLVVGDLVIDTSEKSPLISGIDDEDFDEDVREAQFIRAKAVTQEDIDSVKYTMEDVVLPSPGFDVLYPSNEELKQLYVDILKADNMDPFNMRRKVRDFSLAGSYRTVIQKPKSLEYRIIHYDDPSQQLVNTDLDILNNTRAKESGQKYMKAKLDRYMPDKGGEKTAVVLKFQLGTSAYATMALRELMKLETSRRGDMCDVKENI

B1: Psi-modified CDC8 (ssRNA)
RNA: GUCAAUCACGAUUGUAGACGUUACUAAUAAGGGCAUUCAGGAAGUUGAAGCGCUUAUUUGG
modifications: pseudouridine at the UGUAG target U (U15)
binding signal [1]: 8 fold weaker than D256A/delta ID-I on unmodified CDC8
Kd [2]: 75 ± 15 nM
